The values below come from patent US20230374147A1 (HUMMINGBIRD BIOSCIENCE PTE, published 2023).

Numbering of substitutions follows the chain as printed.

Experiment [1] deals with T1, cynomolgous macaque BCMA expressed on CHOK1 cells.
T1 construct: also called cyno BCMA on cells
As to the kind of experiment: flow cytometry, CHOK1 cells transiently expressing cynomolgus BCMA. (A flow cytometer gives signals particle by particle.)

For experiment [2], the target named is T2, human BCMA expressed on cells (human, UniProt Q02223 1-184).
T2 construct: the cell line is named under assay; also called wildtype human BCMA
T2 sequence: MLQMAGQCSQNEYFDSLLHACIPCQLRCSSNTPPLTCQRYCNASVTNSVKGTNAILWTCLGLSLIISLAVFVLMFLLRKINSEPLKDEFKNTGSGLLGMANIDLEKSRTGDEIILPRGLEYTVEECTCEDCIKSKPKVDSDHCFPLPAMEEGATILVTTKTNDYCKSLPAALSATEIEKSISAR
Nature of the experiment: flow cytometry, H929 cells (BCMA+).

Experiment [3] has as its target T3, His-tagged human BCMA (Acro Biosystems, Cat. #BCA-H522y) (human, UniProt Q02223 1-54).
T3 construct: also called huBCMA; P1; not shown: His tag
T3 sequence: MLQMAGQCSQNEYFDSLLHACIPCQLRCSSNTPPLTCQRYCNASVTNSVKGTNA
Nature of the experiment: competition ELISA: His-tagged human BCMA binding to coated APRIL-Fc in the presence of the antibody.

Experiment [4] deals with T3, His-tagged human BCMA (Acro Biosystems, …). Described as above. The source holds these as a separate data set.
Experiment [5] has as its target T4, His-tagged cynomolgous macaque BCMA (Acro Biosystems, BCA-C52H7) (cynomolgus macaque, UniProt Q02223 1-54 (human entry)).
T4 construct: Bought protein; also called cyno BCMA; CyBCMA; not shown: His tag
Nature of the experiment: ELISA, coated His-tagged cynomolgus BCMA. A general note: In an ELISA, binding on a coated surface is turned into a signal by an enzyme label.

In experiment [6] the target is T5, His-tagged mouse BCMA (Acro Biosystems, BCA-M52H3) (mouse, UniProt O88472 1-49).
T5 construct: Bought protein; not shown: His tag
T5 chain: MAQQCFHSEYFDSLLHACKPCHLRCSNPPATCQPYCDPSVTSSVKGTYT
As to the kind of experiment: BLI, His-tagged mouse BCMA on HIS1K tip. For orientation: In BLI a coated tip is dipped into the sample, and binding shifts an interference pattern.

Experiment [7] deals with T4, His-tagged cynomolgous macaque BCMA …. Nature of the experiment: BLI, His-tagged cynomolgus BCMA on HIS1K tip; R2 0.9963.
In experiment [8] the target is T3, His-tagged human BCMA (Acro Biosystems, …). Nature of the experiment: ELISA, coated His-tagged human BCMA.
For experiment [9], the target named is T6, Human HER3-His (Sino Biological, 10201-H08H) (human, UniProt P21860 20-643).
T6 construct: Specificity control; also called Human HERS-His
As to the kind of experiment: ELISA, coated Human HER3-His.

Experiment [10] addresses T4, His-tagged cynomolgous macaque BCMA …. As to the kind of experiment: BLI, His-tagged cynomolgus BCMA on HIS1K tip.
In experiment [11] the target is T7, human TACI expressed on cells (human, UniProt O14836 1-293).
T7 construct: also called wildtype human TACI
T7 sequence: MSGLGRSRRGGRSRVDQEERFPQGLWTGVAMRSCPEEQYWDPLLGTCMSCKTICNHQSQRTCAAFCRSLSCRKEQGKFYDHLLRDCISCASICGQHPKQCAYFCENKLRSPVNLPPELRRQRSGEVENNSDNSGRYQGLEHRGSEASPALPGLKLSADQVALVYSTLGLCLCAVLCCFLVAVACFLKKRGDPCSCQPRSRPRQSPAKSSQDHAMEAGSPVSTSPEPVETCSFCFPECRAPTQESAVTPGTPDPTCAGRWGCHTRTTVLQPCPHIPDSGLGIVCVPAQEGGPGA
Nature of the experiment: flow cytometry, HEK 293 cells transiently expressing human TACI.

The target of experiment [12] is T3, His-tagged human BCMA (Acro Biosystems, …). As to the kind of experiment: BLI, His-tagged human BCMA on HIS1K tip.
Experiment [13] addresses T8, Cyno TACI-His (Sino Biological, 90976-C08H) (cynomolgus macaque, UniProt G7PTR7 1-165).
T8 construct: Bought protein; also called cynomolgous macaque TACI; CyTACI
T8 sequence: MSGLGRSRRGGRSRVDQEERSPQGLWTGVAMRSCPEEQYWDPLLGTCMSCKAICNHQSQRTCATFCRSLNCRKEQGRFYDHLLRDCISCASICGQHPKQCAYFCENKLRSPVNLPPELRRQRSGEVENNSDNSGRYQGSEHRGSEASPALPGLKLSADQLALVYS
As to the kind of experiment: ELISA, coated Cyno TACI-His.

Experiment [14] addresses T2, human BCMA expressed on cells. As to the kind of experiment: flow cytometry, fixed RPMI 8226 cells (BCMA+, TACI+: the cells carry both targets).
Experiment [15] has the same target. As to the kind of experiment: flow cytometry, HEK 293 cells expressing human BCMA.
In experiment [16] the target is T3, His-tagged human BCMA (Acro Biosystems, …). Nature of the experiment: ELISA, coated His-tagged human BCMA. The source holds these as a separate data set.
Experiment [17] addresses T9, recombinant his-tagged human TACI (Sinobiological cat #11937-H08H) (human, UniProt O14836 1-165).
T9 construct: Bought protein; also called Human TACI-His; huTACI; not shown: His tag
T9 sequence: T8 sequence with S21F, A52T, T64A, N70S, R77K, S139L, L160V
Nature of the experiment: ELISA, coated His-tagged human TACI.

Experiment [18] addresses T3, His-tagged human BCMA (Acro Biosystems, …). Nature of the experiment: BLI, His-tagged human BCMA on HIS1K tip, no APRIL; R2 0.9957.

A word on the EC50: it is the concentration at which the effect is half-maximal. Usually IC50 stands for the point on the concentration scale where inhibition reaches its midpoint. As usually defined, the EC50 (read off the curve) is the concentration that produces a half-maximal response. Read a low EC50 (read off the curve) as greater potency. The term Kd denotes the constant that tells how readily two partners part at equilibrium. Higher therefore signals a looser complex.

B1: J6M0 (antibody, V domains shown)
VH: QVQLVQSGAEVKKPGSSVKVSCKASGGTFSNYWMHWVRQAPGQGLEWMGATYRGHSDTYYNQKFKGRVTITADKSTSTAYMELSSLRSEDTAVYYCARGAIYDGYDVLDNWGQGTLVTVSS
VL: DIQMTQSPSSLSASVGDRVTITCSASQDISNYLNWYQQKPGKAPKLLIYYTSNLHSGVPSRFSGSGSGTDFTLTISSLQPEDFATYYCQQYRKLPWTFGQGTKLEIK
notes: also called J6M0-hIgG1; anti-BCMA
On to B1, for which the binding result is given as “binds” in experiment [1]; “no binding (tested: log M about -7.7 (3 ug/ml per paragraph 742))” in experiment [9]; “no binding (tested: 10 ug/ml)” in experiment [11]; “no binding (tested: log M about -7.7 (3 ug/ml per paragraph 742))” in experiment [13]; “no binding (tested: 10 ug/ml)” in experiment [17]. The EC50 in experiment [2] is 1.77 nM; in experiment [14], approximately 9.61 nM; in experiment [15], 10.1 nM; in experiment [16] it was 0.044 nM. In [3], the IC50 was 0.92 nM. In addition, the “IC50 (read off the curve)” value in experiment [4] is approximately 0.5 µg/mL. The “EC50 (read off the curve)” value is approximately 0.01 µg/mL in experiment [5] and approximately 0.007 µg/mL in experiment [8]. Moreover, in experiment [6], the “Mouse BCMA response” value amounted to 0.0423. Moreover, the equilibrium dissociation constant (Kd) in experiment [7] and in experiment [18] was less than 0.001 nM each time. In addition, in experiment [10], the “Cyno BCMA response” value is 2.16. Moreover, the “Human BCMA response” value in experiment [12] came out at 2.53.
